Experimental data: paper PMC11371640, “Structural deficits in key domains of Shank2 lead to alterations in postsynaptic nanoclusters and to a neurodevelopmental disorder in humans” (Molecular Psychiatry, 2022)
Several values for one entry are separate records, joined by “and”; a condition that tells them apart may be missing. Equal entries are not always repeated.

Key:
[1] = target: T1, His6-SUMO-tagged SH3 to PDZ domains of Shank2 (R520-D727), G643R ( (human or rat cDNA cloned), UniProt Q9UPX8-3 520-727, G643R); test: ITC; peptide in the syringe (200 µM; 1 mM for G643R), His6-SUMO SH3-PDZ protein in the cell (20-30 µM); 25 °C; 50 mM Tris-HCl pH 8.0, 100 mM NaCl, 1 mM EDTA; 1:1 binding model; details: both partners purified
T1 construct: Shank2, SH3 to PDZ domains, residues R520-D727, patient variant G643R; numbers count on: NM_012309.5 (isoform of 1849 residues); also called G643R mutant Shank2; G643R variant; source: E. coli BL21(DE3), purified (Ni-NTA agarose, G-25); not shown: His6, N-terminal, kept; SUMO, N-terminal, kept
T1 sequence (looked up): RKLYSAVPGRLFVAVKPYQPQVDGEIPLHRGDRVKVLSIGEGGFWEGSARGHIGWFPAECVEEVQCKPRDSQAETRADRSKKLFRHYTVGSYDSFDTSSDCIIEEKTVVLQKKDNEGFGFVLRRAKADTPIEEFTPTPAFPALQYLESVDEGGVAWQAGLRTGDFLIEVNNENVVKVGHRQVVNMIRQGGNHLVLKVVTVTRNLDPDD

[2] = target: T2, His6-SUMO-tagged SH3 to PDZ domains of Shank2 (R520-D727), N690S ( (human or rat cDNA cloned), UniProt Q9UPX8-3 520-727, N690S); test: as above; details: both partners purified
T2 construct: Shank2, SH3 to PDZ domains, residues R520-D727, patient variant N690S; numbers count on: NM_012309.5 (isoform of 1849 residues); source: E. coli BL21(DE3), purified (Ni-NTA agarose, G-25); not shown: His6, N-terminal, kept; SUMO, N-terminal, kept
T2 sequence (looked up): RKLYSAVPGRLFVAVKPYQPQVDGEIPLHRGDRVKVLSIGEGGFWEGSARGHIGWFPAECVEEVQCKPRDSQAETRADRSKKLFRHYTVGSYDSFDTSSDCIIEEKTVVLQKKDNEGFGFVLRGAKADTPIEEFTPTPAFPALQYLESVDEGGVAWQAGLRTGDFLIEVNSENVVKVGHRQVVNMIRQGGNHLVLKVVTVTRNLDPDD

[3] = target: T3, His6-SUMO-tagged SH3 to PDZ domains of Shank2 (R520-D727), V717F ( (human or rat cDNA cloned), UniProt Q9UPX8-3 520-727, V717F); test: as above; details: both partners purified
T3 construct: Shank2, SH3 to PDZ domains, residues R520-D727, patient variant V717F; numbers count on: NM_012309.5 (isoform of 1849 residues); source: E. coli BL21(DE3), purified (Ni-NTA agarose, G-25); not shown: His6, N-terminal, kept; SUMO, N-terminal, kept
T3 sequence (looked up): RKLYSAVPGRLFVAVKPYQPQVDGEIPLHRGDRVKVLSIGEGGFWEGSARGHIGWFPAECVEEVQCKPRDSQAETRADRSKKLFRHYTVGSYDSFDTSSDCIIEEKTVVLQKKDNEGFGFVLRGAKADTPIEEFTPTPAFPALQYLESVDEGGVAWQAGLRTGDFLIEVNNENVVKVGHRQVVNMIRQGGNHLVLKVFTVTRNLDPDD

[4] = target: T4, His6-SUMO-tagged SH3 to PDZ domains of Shank2 (R520-D727), S610Y ( (human or rat cDNA cloned), UniProt Q9UPX8-3 520-727, S610Y); test: as above; details: both partners purified
T4 construct: Shank2, SH3 to PDZ domains, residues R520-D727, patient variant S610Y; numbers count on: NM_012309.5 (isoform of 1849 residues); source: E. coli BL21(DE3), purified (Ni-NTA agarose, G-25); not shown: His6, N-terminal, kept; SUMO, N-terminal, kept
T4 sequence (looked up): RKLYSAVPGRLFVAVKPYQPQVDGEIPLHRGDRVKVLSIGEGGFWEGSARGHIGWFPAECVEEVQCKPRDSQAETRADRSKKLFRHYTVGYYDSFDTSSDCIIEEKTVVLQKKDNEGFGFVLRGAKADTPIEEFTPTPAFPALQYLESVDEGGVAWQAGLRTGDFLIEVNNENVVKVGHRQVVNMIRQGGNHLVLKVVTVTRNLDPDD

[5] = target: T5, His6-SUMO-tagged SH3 to PDZ domains of Shank2 (R520-D727), WT ( (human or rat cDNA cloned), UniProt Q9UPX8-3 520-727); test: as above; details: both partners purified
T5 construct: Shank2, SH3 to PDZ domains, residues R520-D727; numbers count on: NM_012309.5 (isoform of 1849 residues); Cloned into pET-SUMO; also called His6-SUMO-SH3-PDZ fusion; Shank2 WT; source: E. coli BL21(DE3), purified (Ni-NTA agarose, G-25); not shown: His6, N-terminal, kept; SUMO, N-terminal, kept
T5 sequence (looked up): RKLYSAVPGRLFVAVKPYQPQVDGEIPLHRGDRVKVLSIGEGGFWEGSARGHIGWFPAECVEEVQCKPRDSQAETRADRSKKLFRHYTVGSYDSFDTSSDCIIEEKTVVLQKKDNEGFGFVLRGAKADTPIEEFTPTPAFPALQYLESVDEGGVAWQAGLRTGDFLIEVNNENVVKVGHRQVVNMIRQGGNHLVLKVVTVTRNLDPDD

[6] = target: T6, His6-SUMO-tagged SH3 to PDZ domains of Shank2 (R520-D727), N690S ( (human or rat cDNA cloned), UniProt Q9UPX8-3 520-727, N690S); test: ITC
T6 sequence: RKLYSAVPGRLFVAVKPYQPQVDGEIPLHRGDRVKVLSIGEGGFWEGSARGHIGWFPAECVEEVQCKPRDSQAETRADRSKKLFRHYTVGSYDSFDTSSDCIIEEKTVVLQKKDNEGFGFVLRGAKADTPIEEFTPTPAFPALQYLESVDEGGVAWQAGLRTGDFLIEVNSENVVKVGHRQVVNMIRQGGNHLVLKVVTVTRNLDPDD

[7] = target: T7, His6-SUMO-tagged SH3 to PDZ domains of Shank2 (R520-D727), V717F ( (human or rat cDNA cloned), UniProt Q9UPX8-3 520-727, V717F); test: ITC
T7 sequence: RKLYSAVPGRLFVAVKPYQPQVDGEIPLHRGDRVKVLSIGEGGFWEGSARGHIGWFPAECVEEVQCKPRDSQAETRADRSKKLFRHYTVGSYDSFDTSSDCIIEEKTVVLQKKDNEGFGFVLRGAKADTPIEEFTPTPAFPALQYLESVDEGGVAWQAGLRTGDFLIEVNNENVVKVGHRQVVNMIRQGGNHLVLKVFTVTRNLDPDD

[8] = target: T8, His6-SUMO-tagged SH3 to PDZ domains of Shank2 (R520-D727), S610Y ( (human or rat cDNA cloned), UniProt Q9UPX8-3 520-727, S610Y); test: ITC
T8 sequence: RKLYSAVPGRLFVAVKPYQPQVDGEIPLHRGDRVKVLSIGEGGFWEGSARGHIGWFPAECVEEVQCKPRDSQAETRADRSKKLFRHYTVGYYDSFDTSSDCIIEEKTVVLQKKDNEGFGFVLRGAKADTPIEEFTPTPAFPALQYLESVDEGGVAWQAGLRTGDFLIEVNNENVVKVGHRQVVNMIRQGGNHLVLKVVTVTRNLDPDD

[9] = target: T9, His6-SUMO-tagged SH3 to PDZ domains of Shank2 (R520-D727), WT ( (human or rat cDNA cloned), UniProt Q9UPX8-3 520-727); test: ITC
T9 chain: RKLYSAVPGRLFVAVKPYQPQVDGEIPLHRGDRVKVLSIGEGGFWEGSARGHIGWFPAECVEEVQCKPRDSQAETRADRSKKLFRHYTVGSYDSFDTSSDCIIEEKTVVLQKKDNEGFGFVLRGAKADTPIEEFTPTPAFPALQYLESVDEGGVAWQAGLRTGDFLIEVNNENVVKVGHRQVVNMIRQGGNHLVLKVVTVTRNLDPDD

[10] = target: T10, His6-SUMO-tagged SH3 to PDZ domains of Shank2 (R520-D727), G643R ( (human or rat cDNA cloned), UniProt Q9UPX8-3 520-727, G643R); test: ITC
T10 sequence: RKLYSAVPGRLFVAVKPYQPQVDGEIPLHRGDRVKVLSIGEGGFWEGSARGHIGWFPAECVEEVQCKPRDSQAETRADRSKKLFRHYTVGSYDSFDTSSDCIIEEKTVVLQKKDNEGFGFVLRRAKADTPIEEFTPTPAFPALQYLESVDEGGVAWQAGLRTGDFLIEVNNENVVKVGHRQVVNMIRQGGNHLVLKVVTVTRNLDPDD

B1: synthetic peptide of the complete PDZ ligand of GKAP (last 15 amino acids of GKAP/SAPAP1) (peptide)
peptide: ADSIEIYIPEAQTRL
notes: GKAP/SAPAP1, the last 15 amino acids (complete PDZ ligand), free N- and C-terminus; also called GKAP peptide; source: synthetic peptide (Genscript)
fold reduction of affinity against WT [1]: > 70 fold
binding result [2]: binds
binding result [3]: binds
binding result [4]: binds
binding result [5]: binds
Kd [6]: 411 nM
Kd [7]: 848 nM
Kd [8]: 910 nM
Kd [9]: 319 nM and 320 nM
Kd [10]: 22000 nM and 22500 nM
